Where “and” joins values, the source holds several entries; their conditions need not be identical. Equal values may be shown once.
Biological target: the molecule itself
Experiment: SEC

| Protein | stoichiometry N |
| --- | --- |
| WRN fragment WRN(1151-1432) (domain or fragment, human, UniProt Q14191 1151-1432, looked up) ETQIVLYGKLVEARQKHANKMDVPPAILATNKILVDMAKMRPTTVENVKRIDGVSEGKAAMLAPLLEVIKHFCQTNSVQTDLFSSTKPQEEQKTSLVAKNKICTLSQSMAITYSLFQEKKMPLKSIAESRILPLMTIGMHLSQAVKAGCPLDLERAGLTPEVQKIIADVIRNPPVNSDMSKISLIRMLVPENIDTYLIHMAIEILKHGPDSGLQPSCDVNKRRCFPGSEEICSSSKRSKEEVGINTETSSAERKRRLPVWFAKGSDTSKKLMDKTKRGGLFS | 3 |
| WRN C-terminal fragment WRN(1072-1432) (domain or fragment, human, UniProt Q14191 1072-1432, looked up) KKLLLPSSKTVSSGTKEHCYNQVPVELSTEKKSNLEKLYSYKPCDKISSGSNISKKSIMVQSPEKAYSSSQPVISAQEQETQIVLYGKLVEARQKHANKMDVPPAILATNKILVDMAKMRPTTVENVKRIDGVSEGKAAMLAPLLEVIKHFCQTNSVQTDLFSSTKPQEEQKTSLVAKNKICTLSQSMAITYSLFQEKKMPLKSIAESRILPLMTIGMHLSQAVKAGCPLDLERAGLTPEVQKIIADVIRNPPVNSDMSKISLIRMLVPENIDTYLIHMAIEILKHGPDSGLQPSCDVNKRRCFPGSEEICSSSKRSKEEVGINTETSSAERKRRLPVWFAKGSDTSKKLMDKTKRGGLFS | 6 and 3 |

Source: paper PMC4586260 (Biochemistry, 2008)
